Measured values taken from patent publication US20160220651A1 (UNIVERSITY OF PITTSBURGH OF THE COMMONWEALTH SYSTEM OF …, published 2016).

Target: T1, HLA-A2 complexes expressed by T2 cells (human)
T1 construct: whole, on cells; also called HLA-A2.1 class I molecule
Experiment: T2 class I stabilization assay, flow cytometry

Binder | binding result
RLTPGVHEL (Synthetic peptide (Fmoc), >96% pure) [DLK1 269-277 peptide RLTPGVHEL] | binds
GMLGMVSGL (Synthetic peptide (Fmoc), >96% pure) [NRP1 433-441 peptide GMLGMVSGL] | binds
VLLGAVCGV (Synthetic peptide (Fmoc), >96% pure) [NRP1 869-877 peptide VLLGAVCGV] | binds
DIWDGIPHV (Synthetic peptide (Fmoc), >96% pure) [NRP2 214-222 peptide DIWDGIPHV] | binds
YLQVDLRFL (Synthetic peptide (Fmoc), >96% pure) [NRP2 328-336 peptide YLQVDLRFL] | binds
NMLGMLSGL (Synthetic peptide (Fmoc), >96% pure) [NRP2 436-444 peptide NMLGMLSGL] | binds
ILLWEIFTL (Synthetic peptide (Fmoc), >96% pure; also called PDGFRβ (891)) [PDGFRβ 890-898 peptide ILLWEIFTL] | binds
LAALPHSCL (Synthetic peptide (Fmoc), >96% pure) [RGS5 5-13 peptide LAALPHSCL] | binds
LLVPTCVFLV (Synthetic peptide (Fmoc), >96% pure) [TEM1 691-700 peptide LLVPTCVFLV] | binds
TLFWLLLTL (Synthetic peptide (Fmoc), >96% pure) [VEGFR1 770-778 peptide TLFWLLLTL] | binds
ILGVLTSLV (Synthetic peptide (Fmoc), >96% pure) [DLK1 310-318 peptide ILGVLTSLV] | binds
VIAMFFWLL (Synthetic peptide (Fmoc), >96% pure) [VEGFR2 773-781 peptide VIAMFFWLL] | binds
FLNKCETWV (Synthetic peptide (Fmoc), >96% pure) [DLK1 326-334 peptide FLNKCETWV] | binds
TLADFDPRV (Synthetic peptide (Fmoc), >96% pure) [EphA2 883-891 peptide TLADFDPRV] | binds
RLLVVYPWT (Synthetic peptide (Fmoc), >96% pure) [HBB 31-39 peptide RLLVVYPWT] | binds
RLLGNVLVCV (Synthetic peptide (Fmoc), >96% pure) [HBB 105-114 peptide RLLGNVLVCV] | binds
TLSNLSFPV (Synthetic peptide (Fmoc), >96% pure) [NG2 770-778 peptide TLSNLSFPV] | binds
LILPLLFYL (Synthetic peptide (Fmoc), >96% pure) [NG2 2238-2246 peptide LILPLLFYL] | binds
GLLRFVTAV (Synthetic peptide (Fmoc), >96% pure) [NRP1 331-339 peptide GLLRFVTAV] | binds
